In patent US8173604:

What was measured:
[1] = system: 4060 peptide (eighteen-residue peptide, residues 40-57 of human Skp2)
[2] = target: insect cell-produced and purified GST-cyclin A/Cdk2 (kinase reactions, ~3 nM) (UniProt P20248); test: kinase inhibition: purified proteins, ~3 nM GST-cyclin A/Cdk2, Rb-C phosphorylation, non-linear least squares (FIG. 7F)

Sequence of purified p27 (GST cleaved off by thrombin) (P46527 whole entry): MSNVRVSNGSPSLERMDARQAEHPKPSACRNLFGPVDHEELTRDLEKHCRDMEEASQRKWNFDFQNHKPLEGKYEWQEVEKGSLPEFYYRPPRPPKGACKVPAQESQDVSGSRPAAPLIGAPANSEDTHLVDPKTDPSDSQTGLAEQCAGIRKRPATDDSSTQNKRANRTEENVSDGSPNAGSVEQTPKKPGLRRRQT

| Substance | IP-kinase assay, phosphorylation of Rb-C by cyclin A/Cdk2 (Peptide RxL) | IP-kinase assay, phosphorylation of Rb-C by cyclin A/Cdk2 [1] | Ki [2] |
| --- | --- | --- | --- |
| myc-cyclin A/Cdk2 (293T cell extracts transfected with myc-cyclin A and Cdk2) | the RxL peptide inhibited the kinase activity of cyclin A/Cdk2 towards Rb-C as expected | the 4060 peptide did not |  |
| purified p27 (GST cleaved off by thrombin) (from UniProt P46527 1-198) (other; other documents disagree on this pair) |  |  | 2 nM |
